# Test results published in article doi:10.64898/2025.12.30.697132, “Explaining how mutations affect AlphaFold predictions” (bioRxiv, 2025).
# B1: Human XCL1(1-72) (domain or fragment, UniProt P47992 22-93, looked up)
# chain: VGSEVSDKRTCVSLTTQRLPVSRIKTYTITEGSLRAVIFITKRGLKVCADPQATWVRDVVRSMDRKSNTRNN
# modifications: 4-fluorophenylalanine, presumed at F39 (single fluorine atom verified by electrospray mass spectrometry)
# notes: XCL1, human, residues 1-72, lacks the disordered C-terminal tail (residues 73-93); The protein exchanges between a monomeric chemokine fold and a dimeric beta-sheet fold; also called hXCL1(1-72); wildtype XCL1
# Biological target: the molecule itself
# Assay: 19F NMR; 4-F-Phe labelled hXCL1(1-72) at 100 uM in 20 mM NaPO4, 50 mM NaCl, pH 6.5, 35 °C; populations of the dimer fold and the monomeric chemokine fold
protein,measurement,value
B1,percent of the protein in the dimer fold,77%
